# Reference: PMC5388602 (Biochemistry, 2016)
# B1: SrpA sialoglycan binding region (SrpABR), tag cleaved, as crystallised (domain or fragment)
# chain: RRATDTTPPTITVPSDIIAYRGEEFEFYFEITDDSGQVKNIELSTFGKPLGLNWLEYSEDNFNVPGNATSDNPLRVRVHGTVPLNEPIPADKNRAQFTRTIRAWDAAGNVSSNITFVIKYRAQTDKYNPADPTITYVDRLSSLSPSEKNAVEAAVRAANPQIPAAARITVSANGTVTITYPDSSTDTITANRVVKDLASSR
# Biological target: the molecule itself
# Experiment: crystal structure
protein,measurement,value
B1,stoichiometry N,2
